Measurements from the supplement of paper PMC10567573.
± gives the standard deviation.

Test: protein stability index of a GFP-peptide fusion (GPS, HEK-293T) (PSI 1-6); higher = more stable
[1] = treatment: DMSO, c terminus: a fixed tail appended
[2] = treatment: MLN4924 1 uM, 8 h, c terminus: a fixed tail appended
[3] = treatment: DMSO, c terminus: native
[4] = treatment: MLN4924 1 uM, 8 h, c terminus: native
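Note: 24-mer peptide tiles fused after GFP, lentivirally expressed, FACS-sorted into six equal bins by GFP/DsRed ratio, decoded by Illumina sequencing, PSI is the read-weighted mean bin number.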

Sequence | protein stability index [1] | protein stability index [2] | protein stability index [3] | protein stability index [4]
PRLIAKVEGKGNGIKTVIVNMVDV [EIF5] | 2.34 ± 0.41 | 2.37 ± 0.34 | – | –
NSGLKPKDNEFTSKPWHWPINYQG [POMT2] | 2.99 ± 0.18 | 3.24 ± 0.27 | – | –
EANNLAAAASAKDIYYNNMEEVCG [ATL3] | 4.69 ± 0.26 | 4.68 ± 0.18 | – | –
FFRKLLDCCQVSAPNRFFQKLNVF [NLN] | 2.02 ± 0.073 | 2.47 ± 0.74 | – | –
GVSRGVGFIRFDKRIEAEEAIKGL [ELAVL3] | 3.572 ± 0.035 | 4.05 ± 0.57 | – | –
EVKFPNASDMFRRLRDAGFRVTLW [MYORG] | 2.97 ± 0.74 | 2.17 ± 0.31 | – | –
EGTNGQLDYSFGDHTSEAVRNLFG [PCDHGC5] | 3.89 ± 0.13 | 3.9 ± 0.32 | – | –
LWARGTWTQATGLGCALLAAHAVV [SOAT2] | 3.01 ± 0.11 | 3.2 ± 1.6 | – | –
RGLIPVKRGPSSRSGGPPPKKSAP [RBMY1A1] | 4.3 ± 0.58 | 4.73 ± 0.28 | – | –
GPGSKRDAHFCAVCSDYASGYHYG [ESR2] | 2.42 ± 0.2 | 2.65 ± 0.32 | – | –
RSRSLDIQPSSEGLGPTSEPFPSS [SPAG8] | 5.46 ± 0.23 | 5.52 ± 0.094 | – | –
SADRLTVRCGLLGSLGPVPVLRFD [TRIM14] | 2.12 ± 0.31 | 2.25 ± 0.31 | – | –
KKNSNMTYEKLSRAMRYYYKREIL [ELF3] | 2.33 ± 0.25 | 2.27 ± 0.47 | – | –
VKTWFQNQRMKSKRWQKNNWPKNS [NANOGP8] | 2.21 ± 0.57 | 2.42 ± 0.38 | – | –
EILSESVVPDVRSVVTTARMQVLK [SMARCE1] | 2.87 ± 0.56 | 2.54 ± 0.38 | – | –
RGEQTTSQVSWEQDLKLFLQEPGV [FCHSD1] | 4.01 ± 0.27 | 4.06 ± 0.43 | – | –
RRERNNIAVRKSRDKAKMRNLETQ [CEBPB] | 4.28 ± 0.18 | 4.5 ± 0.19 | – | –
GETGSGDQAGGEGKHITVFKTYIS [MYOZ1] | 3.97 ± 0.14 | 4.06 ± 0.15 | – | –
IFQEQQKKWQQYRSVRRERLKEMK [FAM9B] | 3.22 ± 0.29 | 3.22 ± 0.39 | – | –
IEDFQQKILLTKSENARLVLQIDN [KRT36] | 2.79 ± 0.25 | 2.8 ± 0.23 | – | –
SIYGIPHSTLEYKVKERLGTLKNP [LCOR] | 3.12 ± 0.31 | 3.2 ± 0.52 | – | –
NENMAAKKKSVAMHTNYLSACSFT [GNB5] | 3.09 ± 0.21 | 3.25 ± 0.3 | – | –
GYVANSSNCISGVCSVRGGEGRSR [KRT71] | 3.47 ± 0.2 | 3.73 ± 0.43 | – | –

Sequence | protein stability index [1] | protein stability index [2] | protein stability index [3] | protein stability index [4]
YSSRTPGTPGTPSYPRTPHTPGTP [MAP2] | 4.25 ± 0.26 | 4.27 ± 0.2 | – | –
GRATKRRKKSGDLKKAKVQVERMR [FBXO34] | 4.25 ± 0.072 | 4.26 ± 0.65 | – | –
EALVRTVLRAGDREDITEPAICAL [CTNNB1] | 3.45 ± 0.29 | 3.6 ± 0.51 | – | –
SNPNGNGGFMGYSAENIPGCSSSG [CRY1] | 4.57 ± 0.24 | 4.34 ± 0.35 | – | –
CCVKTELLGEETPMAADEGSAEKQ [EHMT1] | 5.45 ± 0.22 | 5.47 ± 0.12 | – | –
RFYFENLLAKNSKPIHTTILNPHV [CAMK2B] | 2.2 ± 0.11 | 2.23 ± 0.23 | – | –
ERCNQLLRALKLVITALKCHKYDR [ZER1] | 2.56 ± 0.47 | 2.71 ± 0.47 | – | –
RQDPRPHGPQLPTGIEGNWGRLLE [ZBED2] | 3.68 ± 0.2 | 3.54 ± 0.32 | – | –
DSGASAITRESHTHRDRPSQQQPL [CSNK1G1] | 5.09 ± 0.15 | 5.15 ± 0.17 | – | –
ALYVQAPTVTIEGFLQALSLAVDK [TRIP13] | 2.09 ± 0.46 | 2.2 ± 0.17 | – | –
IETSALDSTNVEAAFQTILTEIYR [RAB11A] | 2.35 ± 0.074 | 2.44 ± 0.44 | – | –
YMSQVLEKEMKAQEQRLGIRISMS [GMPPB] | 2.38 ± 0.094 | 2.74 ± 0.42 | – | –
LDSVSPCPSSPKQIHLDVDNDRTT [DLC1] | 5.37 ± 0.13 | 5.55 ± 0.099 | – | –
QFGLLSFFFAVLHAIYSLSYPMRR [STEAP1] | 3.28 ± 1 | 2.058 ± 0.016 | – | –
SMLSKNPEDRPSLDDIIRHDFFLQ [PLK2] | 3 ± 0.21 | 3.19 ± 0.32 | – | –
EDWLSHALSRKKSQGLAREQHAGT [FBF1] | 3.9 ± 0.23 | 4.04 ± 0.14 | – | –
IIDYLEQTFLDERTPRLMPDKESM [GDAP1] | 2.6 ± 0.27 | 2.82 ± 0.28 | – | –
NSHQDFWTVWSGNRASLYSFPEPE [PRAME] | 2.49 ± 0.19 | 2.67 ± 0.38 | – | –
GGNVECIKLLQSSGADFHKKDKCG [ANKRD44] | 4.48 ± 0.17 | 4.38 ± 0.1 | – | –
ALRGAAVDEYFRQPVVDTFDIRIL [CARM1] | 2.48 ± 0.45 | 2.6 ± 0.27 | – | –
NIWASQSVLSACDNLSDLVMVRWN [IQUB] | 2.14 ± 0.11 | 2.27 ± 0.46 | – | –
FPALLSTGEFLKLPFERLAFVLSS [KLHL13] | 2.95 ± 0.74 | 3.08 ± 0.73 | – | –
FDQTVFQEVFEPPHYELCTLRGTG [NETO1] | 2.96 ± 0.12 | 2.97 ± 0.3 | – | –

Sequence | protein stability index [1] | protein stability index [2] | protein stability index [3] | protein stability index [4]
AIYFTAYDQLKAFLCGRALTSDLY [SLC25A39] | 3.35 ± 0.83 | 3.37 ± 0.57 | – | –
HRGCGDGCCCPSCYRRYRFTGFY [KRTAP19-2] | – | – | 2.83 ± 0.59 | 3.31 ± 0.47
SLMDLAIEEGFNPVQASQLEEEFD [NFE2L1] | 5.35 ± 0.35 | 5.49 ± 0.12 | – | –
CPKYKFISCPTCRRETVLFTDYGL [RNF208] | 2.28 ± 0.25 | 2.25 ± 0.21 | – | –
GRAVDQDKVLRFAQQIRLHHFNSS [MYORG] | 2.51 ± 0.27 | 2.75 ± 0.34 | – | –
GYSTPADIWSTACMAFELATGDYL [SRPK2] | 2.1 ± 0.33 | 2.54 ± 0.5 | – | –
VVCASYEDYGHWLLCLRAVTHREG [PLEKHN1] | 2.52 ± 0.56 | 2.62 ± 0.49 | – | –
PLEAMYMQCPVIAVNSGGPLESID [ALG2] | 3.61 ± 0.33 | 3.86 ± 0.22 | – | –
TLNQLQSLQNSLECAMETTEEQTR [NECAB1] | 4.94 ± 0.13 | 4.97 ± 0.28 | – | –
FGSGSNGCLGHGSLTDISQPTIVE [NEK8] | 3.5 ± 0.34 | 3.91 ± 0.2 | – | –
FKRTIQGSIEYSCPASNECEITKR [ESRRA] | 3.88 ± 0.23 | 4.19 ± 0.23 | – | –
LNELPVPMVARYIRINPQSWFDNG [CPXM2] | 2.21 ± 0.42 | 2.43 ± 0.28 | – | –
DDIEEKTPISNEVEMESEEQIAER [KMT2E] | 5.8 ± 0.16 | 5.66 ± 0.26 | – | –
LLLEPGSLYILRGSARYDFSHEIL [ALKBH7] | 2.58 ± 1.2 | 2.58 ± 1.3 | – | –
SPVVAMTSRRSGVGLAVVNGQLMA [KLHL20] | 2.88 ± 0.36 | 2.95 ± 0.43 | – | –
IQVVLNGMESYQEVTVQRNCCLTL [ZER1] | 3.21 ± 0.47 | 3.01 ± 0.73 | – | –
TADEIPMEPGDIIGVAGNHWDGYS [FUT8] | 4.21 ± 0.32 | 4.16 ± 0.23 | – | –
FVDSIRRQFEFSVDSFQIILDSLL [TENT5C] | 2.33 ± 0.37 | 2.31 ± 0.14 | – | –
EEIRGGGLLKYCSLLVHGFKPACM [TENT5D] | 3.11 ± 0.5 | 2.35 ± 0.67 | – | –
RENEELSARYLSQCQEAEQARAEL [FBF1] | 5.38 ± 0.16 | 5.34 ± 0.09 | – | –
WFQDPTRFTGTMDAFVKIVRHEGT [SLC25A39] | 2.17 ± 0.25 | 2.23 ± 0.37 | – | –
RKPDPMCVFTYVQSLYNHLRRFE [SMTNL2] | – | – | 2.74 ± 0.62 | 2.72 ± 0.36
YVGEPLVCEVQVHGGSLLGKKYNW [GFOD1] | 2.61 ± 0.62 | 2.18 ± 0.42 | – | –

Sequence | protein stability index [1] | protein stability index [2] | protein stability index [3] | protein stability index [4]
PLGVLQAIAMYFLPPSPRFLVMKG [SLC2A12] | 2.64 ± 0.98 | 2.88 ± 1.3 | – | –
GCSAVSEPASESVVGALPAEHQFS [TRAF3IP2] | 4.38 ± 0.34 | 4.6 ± 0.27 | – | –
LSNKNGKNVELKFVDSIRRQFEFS [TENT5C] | 2.56 ± 0.24 | 2.48 ± 0.42 | – | –
ALRAAEVWMDDFKSHVYMAWNIPM [GALNT9] | 2.35 ± 0.8 | 2.24 ± 0.71 | – | –
LCGAGSEPSIAPTSCAGNLPSRPP [RSPH3] | 4.36 ± 0.36 | 4.28 ± 0.21 | – | –
PPSMVAAGSVVAAVQGLNLRSPNN [CCND1] | 4.31 ± 0.17 | 4.3 ± 0.26 | – | –
GEQPQFWSKTQVLDWISYQVEKNK [ELF3] | 3.02 ± 0.13 | 3.29 ± 0.33 | – | –
FKYINTVISCTIFIVGMVGNATLL [EDNRA] | 3.56 ± 0.57 | 2.89 ± 0.61 | – | –
TFESPADAKDAARDMNGKSLDGKA [RBMX] | 5.39 ± 0.3 | 5.55 ± 0.12 | – | –
ELPNIKREISETEAKALLKERQKK [TFE3] | 3.26 ± 0.7 | 4.19 ± 0.57 | – | –
AWNIPMSNPGVDFGDVSERLALRQ [GALNT9] | 3.68 ± 0.27 | 3.91 ± 0.26 | – | –
GRGGEPRAYFMSDTREEKRFLGEG [CHGB] | 4.23 ± 0.2 | 4.44 ± 0.27 | – | –
LEWHDSLFQILSERQDMYQCLVEG [ZNF511] | 2.42 ± 0.24 | 2.43 ± 0.29 | – | –
ASMSPDATKPSHWCSVAYWEHRTR [SMAD6] | 2.84 ± 0.24 | 2.87 ± 0.27 | – | –
PQKSYFIRLYGLQAGRLLWEQELY [WAS] | 2.28 ± 0.32 | 2.15 ± 0.19 | – | –
DTYDSVYLHPNSYSCACLASGSVL [HDAC6] | 2.21 ± 0.15 | 2.3 ± 0.25 | – | –
VKSNTEQMREAFATAFSKLKPESS [ZBED1] | 4.34 ± 0.24 | 4.27 ± 0.18 | – | –
QTIQKTTTRRIVDGKVVSETNDTK [KRT18] | 5.34 ± 0.19 | 5.31 ± 0.23 | – | –
PPLTRQIAVKTLGIGKNVICDRTA [GFOD1] | 3.71 ± 0.22 | 3.92 ± 0.082 | – | –
EAAEGKSLGSALKPGEGRSALFAG [TRIM29] | 4.87 ± 0.17 | 4.76 ± 0.19 | – | –
